According to US20090163410A1, “Novel Peptides and the Biological Use Thereof” (priority 2005, published 2009):

Experiments:
[1] = molecular target: peptide-phage 07B2S3 (fd phage) (UniProt P03661)
[2] = molecular target: peptide-phage 08B2S3 (fd phage) (UniProt P03661)
[3] = molecular target: HIV-1 (Lai) Nef/SH3-Hck interaction (Human immunodeficiency virus type 1 group M subtype B, UniProt P03406); conditions: for repression of the Nef-SH3 interaction as measured in the cell assay: COS-7 cells (FIG. 5B)
Excerpt: This assay makes it possible to integrate the cellular toxicity and bioavailability parameters by means of quantitative and functional reading of the interaction between two protein partners.
The Checkmate™ commercial system (Promega) was adapted to the HIV-1 (Lai) Nef/SH3-Hck pair in COS-7 cell culture (FIG. 5). This system combines the expression of firefly luciferase under the control of the interaction between Nef and the SH3 domain of Hck, and the expression, which is independent, of renilla luciferase, a control for cell viability. The ratio of the intensity of these two luciferases makes it possible to quantify the activity of a Nef-SH3-interaction competitor capable of penetrating into the cell and the half-life of which is sufficient over the time period of the analysis. Other protein interactions are also reconstituted in this assay: one, which is non-SH3 (between Id and MyoD), in order to exclude the compounds having a nonspecific activity on the luciferase expression, and the other between SH3 of Hck and the SAM68 protein, in order to identify the compounds which interact via the SH3 domain and not via Nef.
The cells are transferred using Fugene6 (Roche), according to the distributor's protocol. Briefly, the plasmids PG5 (300 ng), pAct or pActNef (400 ng), pBindHckmutated or pBindHck (100 ng) and pbcks (200 ng) are mixed, and then the Fugene 6 (3 μl diluted in 100 μl of DMEM culture medium) is added. The plasmids/Fugene6 mixture is left to react for a period of 15 min at ambient temperature, and is then deposited dropwise into the cell culture well.
After expression for 24H, the cells are harvested by treatment with trypsin (Gibco, ref 25300-054), washed, and then dispensed into 96-well plates (reference 353072, Beckton Dickinson). 50 μl of DMEM culture medium are then added to each well.
The activity of a candidate inhibitor compound is tested by adding 25 μl of this diluted compound to the well already containing 50 μl of the cell culture, and the luciferase activity is determined 24 H later in each well using the DualGlo assay kit according to the recommendations of the supplier (Promega).

**Q.** Which IC50 [1] does the source give for “NefΔ1-57 protein (Nef HIV-1 LAI, residues 1 to 57 deleted) (from UniProt P03406 58-206)” here?
**A.** Its IC50 is 1000 nM.

**Q.** What about the IC50 [2] of the same substance?
**A.** The IC50 was 1000 nM.

**Q.** With “R Ahx R Ahx R Ahx R Ahx R Ahx R Ahx R W P A W L P [SEQ ID No. 19]” as the substance, how does the “repression of the Nef-SH3 interaction as measured in the cell assay” value (“repression of the Nef-SH3 interaction” below) [3] read?
**A.** Its value is “repress the Nef-SH3 interaction as measured in the cell assay, in a dose-dependent manner”.

**Q.** With “R Q I K I W F Q N R Nle K W K K [SEQ ID No. 15]” as the substance, how does the “repression of the Nef-SH3 interaction” value [3] read?
**A.** Its value is “repress the Nef-SH3 interaction as measured in the cell assay, in a dose-dependent manner”.

**Q.** How did the “repression of the Nef-SH3 interaction” value [3] turn out when “R R R R R R R R W P A W L P [SEQ ID No. 17]” was run?
**A.** Its value is “repress the Nef-SH3 interaction as measured in the cell assay, in a dose-dependent manner”.

**Q.** W P A W L P (WPAWLP) [SEQ ID No. 11] was tested. Which “biological activity on the Nef-SH3 interaction (firefly/renilla luciferase ratio)” value ([3]; COS-7 cells, 10 to 50 μM of the peptide, compared with a control molecule, various times and periods of addition (FIG. 5B)) did it give?
**A.** The value was “does not show any notable biological activity at low concentration”.
